Reference: US9931433B2, “Time-controlled glucose releasing hydrogels and applications thereof” (Centre National de la Recherche Scientifique (CNRS), priority 2014, dated 2018)

Assay: Stability of the kit components after storage
Format: physicochemical
Conditions: 14 days storage
Source text: The mechanical properties (storage and loss moduli G′ and G″) are identical at D0, D7 or D21 storage.
The activity of the enzyme AMG was preserved after 14 days storage allowing a long term storage of the kit components.

Substance: glucan 1,4 α-glucosidase [AMG]
- activity of the enzyme after storage: preserved
